Source: patent US20070202121A1 (University of California, published 2007)

Molecular target: T1, H-2 D^b MHC class I molecule (mouse, UniProt P01887 21-119; P01899 25-362, limits assumed)
T1 construct: whole, on cells
T1 sequence (MHC heavy, looked up): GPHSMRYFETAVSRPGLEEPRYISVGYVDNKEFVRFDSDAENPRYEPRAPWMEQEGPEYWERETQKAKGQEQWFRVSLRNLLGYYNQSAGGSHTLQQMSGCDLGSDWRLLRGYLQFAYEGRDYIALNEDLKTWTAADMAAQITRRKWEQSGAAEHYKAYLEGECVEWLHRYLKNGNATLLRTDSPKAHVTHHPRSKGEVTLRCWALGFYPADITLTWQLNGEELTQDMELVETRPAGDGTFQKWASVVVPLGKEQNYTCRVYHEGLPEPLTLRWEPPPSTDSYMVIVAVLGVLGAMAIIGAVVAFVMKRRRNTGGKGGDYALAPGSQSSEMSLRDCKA
T1 sequence (b2m, looked up): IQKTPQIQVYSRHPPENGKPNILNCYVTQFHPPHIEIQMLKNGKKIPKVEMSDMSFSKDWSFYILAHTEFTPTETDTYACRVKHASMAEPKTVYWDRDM
Experiment: synthetic peptide pulsed on L cells expressing H-2 D^b, read by T cell hybridoma activation

- binding result: binds
B1: SPAS-1 peptide STHVNHLHC (peptide)
peptide: STHVNHLHC
notes: Encoded by nucleotides 730 to 756 of the SPAS-1 (T) cDNA from TRAMP-C2 tumor cells
